# Results taken from patent US20240425848.
# B1: Tn5 (protein)
# chain: MITSALHRAADWAKSVFSSAALGDPRRTARLVNVAAQLAKYSGKSITISSEGSKAMQEGAYRFIRNPNVSAEAIRKAGAMQTVKLAQEFPELLAIEDTTSLSYRHQVAEELGKLGSIQDKSRGWWVHSVLLLEATTFRTVGLLHQEWWMRPDDPADADEKESGKWLAAAATSRLRMGSMMSNVIAVCDREADIHAYLQDKLAHNERFVVRSKHPRKDVESGLYLYDHLKNQPELGGYQISIPQKGVVDKRGKRKNRPARKASLSLRSGRITLKQGNITLNAVLAEEINPPKGETPLKWLLLTSEPVESLAQALRVIDIYTHRWRIEEFHKAWKTGAGAERQRMEEPDNLERMVSILSFVAVRLLQLRESFTPPQALRAQGLLKEAEHVESQSAETVLTPDECQLLGYLDKGKRKRKEKAGSLQWAYMAIARLGGFMDSKRTGIASWGALWEGWEALQSKLDGFLAAKDLMAQGIKI
# Target: histone H3 trimethylated at lysine 9 (H3K9me3) in native chromatin of Caki-1 cells, P68431
protein,measurement,value
B1,"Ec: global enrichment of the ATAC-seq tagmentation signal over H3K9me3-marked regions, log2(ratio) over genomic Input, Caki-1; subscript printed as 0, first E line of the box",E0= -5.07
same,"Ec: global enrichment of the ATAC-seq tagmentation signal over H3K9me3-marked regions, log2(ratio) over genomic Input, Caki-1 [Continued) e]",Ec= -5.07
same,"Mc: modal enrichment of the ATAC-seq tagmentation signal over H3K9me3-marked regions, log2(ratio) over genomic Input, Caki-1; subscript printed as 0, first M line of the box, agrees with the mode of t",M0= -2.19
same,"Mc: modal enrichment of the ATAC-seq tagmentation signal over H3K9me3-marked regions, log2(ratio) over genomic Input, Caki-1 [Continued) e]",Mc= -2.19
same,stated: no tagmentation signal over H3K9me3 ChIP-seq domains (ATAC-seq on permeabilized Caki-1 nuclei),Tn5 track (scale 0-140.7): near zero over the H3K9me3 domains at about 42.4-43.4 and 43.8-44.6 Mbp of Chr. 19; peaks only where the H3K4me3 track has peaks
same,"stated: no tagmentation signal over H3K9me3 ChIP-seq domains (ATAC-seq, Caki-1)","Tn5 track (scale 0-50): clusters of sharp peaks at the positions of the H3K4me3 peaks; near zero at about 59-62 Mbp of Chr.12, where the H3K9me3 and TnH tracks are raised"
same,"stated: no tagmentation signal over H3K9me3 ChIP-seq domains (bulk ATAC-seq with Tn5 alone and scGET-seq pseudo-bulk, Caki-1) [Continued) g]",tn5 and tn5 pseudobulk tracks (scale 0-50 each): flat near 0 at about 33.5-34.7 Mbp and near 0 inside the H3K9me3 domains at about 36.6-37.4 and 38.2-38.9 Mbp of chr1; sharp peaks at the positions of the H3K4me3 peaks
